Results on 4 molecules are retold here after US20210230287A1 (WUXI BIOLOGICS SHANGHAI, published 2021).

Test [1] deals with T1, mouse 4-1BB, full-length, on cells (mouse, UniProt P20334 24-256).
T1 construct: whole, on cells; also called murine 4-1BB expressing CHO-K1 cells
Nature of the test: flow cytometry on murine 4-1BB-expressing CHO-K1 cells, PE goat anti-human IgG Fc, MFI. As to the method:
Murine 4-1BB-expressing CHO-K1 cells were transferred into 96-well U-bottom plates at a density of 1×10⁵ cells/well. Testing antibodies were serially diluted in PBS containing 1% BSA, and incubated with cells at 4° C. for 1 h. After washing, the secondary antibody, PE labeled Goat anti-human IgG Fc Fragment (Jackson ImmunoResearch), was applied and incubated with cells at 4° C. in the dark for 1 h. The cells were then washed and resuspended in PBS and then analyzed by flow cytometer (BD).
Background: A flow cytometer gives signals particle by particle.

Test [2] has as its target T2, cynomolgus 4-1BB extracellular domain, His tag (cynomolgus, UniProt A9YYE7 24-186).
T2 construct: extracellular domain; also called cynoPro1.ECD.His; ACRO-41B-C52H4; not shown: His tag
Nature of the test: SPR, Biacore T200; antibody captured on Protein G chip, cynomolgus 4-1BB ECD.His as analyte. As to the method: (§1) Antibodies were characterized for affinity and binding kinetics to human, cynomolgus and mouse 4-1BB by SPR assay using Biacore T200 (GE). Protein G was pre-immobilized to a sensor chip (CMS), and anti-4-1BB antibodies were captured when injected to the chip. Various concentrations of human 4-1BB and running buffer were flowed through the sensor chip for an association phase, and followed by dissociation. The association and dissociation curve was analyzed using Biacore T200 Evaluation software Version 2.0.
On the technique in general: In SPR one partner is held on a chip, and binding of the other changes the refractive index at the surface.

The target in the next test is T3, OX40 (human, UniProt P43489 29-216, limits assumed).
T3 sequence (looked up): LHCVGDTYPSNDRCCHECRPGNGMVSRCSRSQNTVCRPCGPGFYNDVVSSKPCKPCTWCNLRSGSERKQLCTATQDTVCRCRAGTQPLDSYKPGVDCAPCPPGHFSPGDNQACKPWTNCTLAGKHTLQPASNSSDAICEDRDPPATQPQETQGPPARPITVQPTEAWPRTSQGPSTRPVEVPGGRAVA
The experiment in a line: ELISA on plate-coated antigen, HRP goat anti-human IgG Fc, OD450-OD540; antibody concentration not given. The protocol:
(§2) Cross-reactivity to TNFR family members OX40, CD40 and GITR was determined by ELISA. Plates (Nunc) were coated with OX40, CD40 or GITR overnight at 4° C. After blocking and washing, anti-4-1BB antibodies were added to the plates and incubated at room temperature for 1 h. The plates were then washed and subsequently incubated with secondary antibody, HRP Conjugated Goat anti-human IgG Fc Fragment antibody (Bethyl), for 45 min. After washing, TMB substrate was added and the color reaction was stopped by 2M HCl. The absorbance at 450 and 540 nm were read using a microplate reader (Molecular Device).
A general note: ELISA stands for enzyme-linked immunosorbent assay.

The target of another test is CD40 (human, UniProt P25942 21-193, limits assumed). The description is as above. The protocol:
as §2

Another test deals with T4, GITR (human, UniProt Q9Y5U5 26-161, limits assumed).
T4 sequence (looked up): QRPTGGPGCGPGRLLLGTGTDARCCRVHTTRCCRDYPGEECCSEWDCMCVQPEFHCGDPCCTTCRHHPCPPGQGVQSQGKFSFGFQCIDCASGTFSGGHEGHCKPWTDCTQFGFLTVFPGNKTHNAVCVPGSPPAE
Described as above. As to the method:
as §2

Test [3] deals with T5, mouse 4-1BB extracellular domain, His tag (mouse, UniProt P20334 24-187).
T5 construct: extracellular domain; also called mPro1.ECD.His; not shown: His tag
T5 sequence (looked up): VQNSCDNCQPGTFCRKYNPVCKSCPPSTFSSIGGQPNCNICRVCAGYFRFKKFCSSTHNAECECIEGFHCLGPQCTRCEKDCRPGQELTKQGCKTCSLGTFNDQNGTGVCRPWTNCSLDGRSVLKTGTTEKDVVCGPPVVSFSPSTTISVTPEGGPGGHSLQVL
The experiment in a line: SPR, Biacore T200; antibody captured on Protein G chip, mouse 4-1BB ECD.His as analyte. The protocol:
as §1

Test [4] deals with human 4-1BB protein (coated on ELISA plates) (human, UniProt Q07011 24-186, limits assumed). Nature of the test: competition ELISA on plate-coated human 4-1BB; competitor: biotinylated BMK4, detected with streptavidin-HRP, OD450-OD540. The protocol: Plates were pre-coated with human 4-1BB protein at 4° C. overnight. After blocking, various concentrations of testing antibodies were pre-mixed with biotinylated BMK antibodies and added to the plates. The plates were incubated at ambient temperature for 1 hour. The binding of the BMK antibodies to human 4-1BB was detected by streptavidin-HRP. The color was developed by dispensing TMB substrate, and then stopped by 2N HCl. The absorbance was read at 450 nm and […] using a microplate spectrophotometer.

The target of test [5] is T6, human 4-1BB extracellular domain, His tag (human, UniProt Q07011 24-186).
T6 construct: also called hPro1.ECD.His; not shown: C-terminal His tag
The experiment in a line: SPR, Biacore T200; antibody captured on Protein G chip, 4-1BB ECD.His as analyte. As to the method:
as §1

The target of test [6] is T7, human 4-1BB, full-length, on cells (human, UniProt Q07011 24-255).
T7 construct: also called human 4-1BB expressing CHO-K1 cells; cell surface 4-1BB
Nature of the test: flow cytometry on human 4-1BB-expressing CHO-K1 cells, PE goat anti-human IgG Fc, MFI. As to the method: Human 4-1BB-expressing CHO-K1 cells were transferred into 96-well U-bottom plates at a density of 1×10⁵ cells/well. […] After washing, the secondary antibody, PE labeled Goat anti-human IgG Fc Fragment (Jackson ImmunoResearch), was applied and incubated with cells at 4° C. in the dark for 1 h. The cells were then washed and re-suspended in PBS and then analyzed by a flow cytometer (BD).

B1: 2.27.16-u1-1-hIgG1L (antibody, V domains shown)
VH: QEQLQESGPGLVKPSQTLSLTCTVSGGSINSQGYYWSWIRQHPGKGLEWIGYIYDSGSAYYNPSLERRVAISLDTSKNQFSLNLNSVTVADTAVYYCARIVAAGRIDPWGQGTLVTVSS
VL: SYVLTQPPSVSVAPGQTARMTCGGDNIGIKIVHWYQQKAGQAPVLVVYDDNDRPSGIPDRFSGSNSGNTATLTISRVAAGDEADYYCQVWDRRSDHVVFGGGTKLTVL
notes: Fully human antibody
B1: the EC50 (read off the curve) (usually the concentration at which the effect is half-maximal) in test [1] is about 900 pM. Also, the values for the Kd in test [2] and in test [3] were 142 pM and 8490 pM, respectively. Also, the koff (as a rule, the first-order rate constant of dissociation) in test [2] was found to be 3.07e-05 s⁻¹; in [3], 0.00134 s⁻¹. For the same molecule, the kon (commonly a measure of how fast the partners come together) in test [2] was 217000 M⁻¹ s⁻¹; in test [3], 158000 M⁻¹ s⁻¹. Besides, the binding result with OX40, in the test with CD40 and with GITR was “no binding” in each case.

B2: 2.27.16-u1-1-hIgG4L (antibody, V domains shown)
VH: QEQLQESGPGLVKPSQTLSLTCTVSGGSINSQGYYWSWIRQHPGKGLEWIGYIYDSGSAYYNPSLERRVAISLDTSKNQFSLNLNSVTVADTAVYYCARIVAAGRIDPWGQGTLVTVSS
VL: SYVLTQPPSVSVAPGQTARMTCGGDNIGIKIVHWYQQKAGQAPVLVVYDDNDRPSGIPDRFSGSNSGNTATLTISRVAAGDEADYYCQVWDRRSDHVVFGGGTKLTVL
On to B2, for which the “EC50 (read off the curve)” value in test [1] is about 800 pM. Besides, the results for the Kd in test [2] and in [3] were 439 pM and 6270 pM, respectively. In addition, the koff in [2] is 0.000101 s⁻¹; in test [3], 0.00136 s⁻¹. The kon in test [2] came out at 230000 M⁻¹ s⁻¹; in test [3], 217000 M⁻¹ s⁻¹. Besides, the binding result with OX40, with CD40 and with GITR was “no binding” in each case.

B3: 2.19.8-u1-3-hIgG1L (antibody, V domains shown)
VH: QVQLVESGGGLVKPGGSLRLSCAASGFTFSDYFMSWIRQAPGKGLEWVSYISNAGSSKYYADSVKGRFTISRDNAKNSLYLQMNSLRAEDTAVYYCVRDPYSGSYSGWFDPWGQGTLVTVSS
VL: SYDLTQPPSVSVSPGQTASITCSGDDLGDKYTSWYQQKPGQSPVLVVYQDHKRPSGIPERFSGSNSGNTATLTISGTQAMDEADYYCQAWDKGIVVFGGGTKLTVL
notes: Fully human antibody
Regarding B3, the “IC50 (read off the curve)” value in test [4] was about 900 pM. In addition, the Kd (commonly a measure of binding affinity in units of concentration) was 16.4 pM in test [2], 26100 pM in [3] and 25.7 pM in test [5]. Moreover, the results for the koff in [2], in test [3] and in [5] were 2.96e-05 s⁻¹, 0.975 s⁻¹ and 6.48e-05 s⁻¹, respectively. For the same molecule, the values for the kon in [2], in test [3] and in [5] were 1.81e+06 M⁻¹ s⁻¹, 3.73e+07 M⁻¹ s⁻¹ and 2.52e+06 M⁻¹ s⁻¹, respectively. For the same molecule, the binding result with OX40, in the test with CD40 and in the test with GITR was “no binding” throughout. In addition, the “EC50 (read off the curve)” value in test [6] is about 70 pM.

B4: 2.19.8-u1-3-hIgG4L (antibody, V domains shown)
VH: QVQLVESGGGLVKPGGSLRLSCAASGFTFSDYFMSWIRQAPGKGLEWVSYISNAGSSKYYADSVKGRFTISRDNAKNSLYLQMNSLRAEDTAVYYCVRDPYSGSYSGWFDPWGQGTLVTVSS
VL: SYDLTQPPSVSVSPGQTASITCSGDDLGDKYTSWYQQKPGQSPVLVVYQDHKRPSGIPERFSGSNSGNTATLTISGTQAMDEADYYCQAWDKGIVVFGGGTKLTVL
With B4, the “IC50 (read off the curve)” value in [4] was about 1000 pM. For the same molecule, the Kd worked out at 15.8 pM in test [2], 18400 pM in test [3] and 17.7 pM in test [5]. Moreover, the koff in test [2] was determined as 2.93e-05 s⁻¹; in test [3] it was 0.215 s⁻¹; in test [5], 3.74e-05 s⁻¹. Further, the kon in [2] stood at 1.86e+06 M⁻¹ s⁻¹; in test [3], 1.17e+07 M⁻¹ s⁻¹; in [5], 2.11e+06 M⁻¹ s⁻¹. For the same molecule, the binding result in the test with OX40, in the test with CD40 and in the test with GITR was “no binding” each time. Besides, the “EC50 (read off the curve)” value in test [6] was about 60 pM.
